Laboratory results reported in the supplement of paper PMC9170038.

Test system: MS2 coat protein
Test: apparent KD of MS2 coat protein; higher = weaker reporter binding
Settings: Eterna round: R107
Summary of the method: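 Each design's apparent KD comes from the median of binding-curve fits to its normalised clusters. Those clusters carried RNA switches transcribed on-chip from Illumina sequencing clusters. SNAP-549-labelled MS2 coat protein was titrated onto them in twofold steps (0.7 or 1.5 nM to 3 µM; per step 0.8–1.5 h down to 10–20 min). Conditions were 100 mM Tris-HCl pH 7.5, 80 mM KCl, 4 mM MgCl2, without or with constant ligand.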

[1] = input ligand: theophylline 20 uM
[2] = input ligand: tryptophan 2.4 mM
[3] = input ligand: theophylline 2 mM

| Sequence | apparent KD of MS2 coat protein (input ligand: arginine 13.2 mM) [µM] | apparent KD of MS2 coat protein [1] [µM] | apparent KD of MS2 coat protein [2] [µM] | apparent KD of MS2 coat protein (input ligand: none) [µM] | apparent KD of MS2 coat protein [3] [µM] |
| --- | --- | --- | --- | --- | --- |
| CCUCGACAUGAGGAUCACCCAUGUAGAGAUACCAGCCUGUGAGAUGGCCCUUGGCAGCUCAUAUAGGGUACAGGAGUCGUUUUGA [Qugetila] | 0.0235 | 0.0632 | 0.0239 | – | – |
| CCUCGACAUGAGGAUCACCCAUGUAGAGAUACCAGCCUGUGAGAUGGCCCUUGGCAGCUCAUAUAGGGUACGGGAGUCGUUUCGA [Eslaqu] | 0.0194 | 0.0484 | 0.0221 | 0.0222 | 0.263 |
| CGAAUAUAGACGGCCGCCACUCUACAAACAUGAGGAUCACCCAUGUUCACAUAGUGGAAACACAUGAGGACCGGGUCAUAGGCUU [#19 Same State - Tryptophan B] | 0.0232 | 0.0269 | – | – | 0.0239 |
| CGAGUGAGUUCAAUCGAAUAACGGUUUUCGCGAGGACCGGUACGGCCGCCACUCGUGUGAUAUCACACAUGAGGAUCACCCAUGU [3'end-1] | 0.0347 | 0.049 | – | – | 0.0634 |
| CGAUACAAAUAAAGCGUUCGUCCGCCAGAUACCAGAUUCAUUUCCAUCCCUUGGCAGCUGUCGACAUGAGGAUCACCCAUGUUUG [theeternabot_exclusion_MS2_Theo_A_41] | 0.0172 | 0.0217 | 0.0199 | – | – |
| CGAUAUAUACGAAGGAGCGACAUGAGGAUCACCCAUGUCUACCACGUCGAAAGACGCUCAUGUCAGGUAGGUCGCGUAUAUAUCG [Astros-Eli-mod9] | 0.0567 | 0.123 | 0.117 | 0.137 | 0.239 |
| CGCAAGCAACAUGAGGAUCACCCAUGUGAAGGAGCGCCGAAUAAGGCAGGUAGGUCGCACAUGAAUAAAUCAUGUAAAAGCUUGC [MAT - Exclusion Arginine A - Mod of Eli - D22] | 0.0337 | 0.0529 | 0.0583 | 0.0627 | 0.16 |
| CGCCGAGAGGGAAGGAGCGCGAUAACAUAACAUGAGGAUCACCCAUGUAAGAAAUUAAUCAUGCAGGUAGGUCGCCCAAGCGGCG [Same State Arginine B GF 3] | 0.015 | 0.0238 | 0.0149 | 0.0151 | 0.0194 |
| CGCGGACCACCUGAUACCAGCGCAGUCAUGCAUGAACCCAACAUGAGGAUCACCCAUGUACGCCCUUGGCAGCAGGGAAAAGUCG [theeternabot_exclusion_MS2_Theo_B_8] | 0.0764 | 0.223 | 0.163 | – | – |
| CGCUACAUGAGGAUCACCCAUGUUACUCCGCGAGGACCGGUACGGCCGCCACUCGGCAGUUUGCGCCGCCGGAGGCACUCUUCAG [theeternabot_sameState_MS2_Trp_A_32] | 0.0209 | 0.0436 | – | – | 0.0337 |
| CGGACAUGAGGAUCACCCAUGUACACUGAAGGAGCGUCGAGAACGACAGGUAGGUCGCAGGCUAAGGAAGGUGAUGCUCAAGAAG [Exclusion Arginine A GF5] | 0.0378 | 0.0473 | 0.0236 | 0.0365 | 0.0411 |
| CGGGCCGCUGCGGAUACCAGUUGAGCAUAGGUAGUGUAUGACAUGAGGAUCACCCAUGUUAACCCUUGGCAGCCGAGAGGGCAGA [theeternabot_exclusion_MS2_Theo_B_13] | 0.0104 | 0.0202 | 0.0102 | 0.0116 | 0.0154 |
| CUAAGAGCGGCGGCCGCCACUGGUAACCGAGAGGAGGAGCUUCUGAACAUGAGGAUCACCCAUGUCAGGACCGGGUCGUCUUAGA [Same State - Tryptophan B] | 0.0155 | 0.0185 | 0.0166 | 0.0138 | 0.0149 |
| CUACAUUUGUAGAAACCGGUCAACAAUAAUCGAGGACCGGUACGGCCGCCACUCGUAUAAUUUAAUACAUGAGGAUCACCCAUGU [Tryptophan A 1] | 0.0137 | 0.0194 | – | – | 0.0194 |
| CUACAUUUGUAGAAACCGGUCAACAAUAAUCGAGGACCGGUACGGCCGCCACUCGUAUAAUUUAUUACAUGAGGAUCACCCAUGU [Tryptophan A 2] | 0.0136 | 0.0167 | – | – | 0.0154 |
| CUAUAAAUAUGAAGGAGCGUCGAAAAUGGGUAAACAUGAGGAUCACCCAUGUAAAGGGAACGACAGGUAGGUCGCAUAUUUAUAG [AstromonsSSArgB#11] | 0.139 | 0.188 | 0.219 | 0.18 | 0.257 |
| CUAUGCAGGUCGGCCGCCACUACACACAUGAGGAUCACCCAUGUAGUUACUGGGUGAAGUGGCAGUAGGACCGGGACCUGCAUAC [Brourdmod10] | 0.139 | 0.394 | 0.362 | 0.391 | 0.817 |
| CUAUUCUGUACGGCCGCCACUUCAACGUGUAAGCUGGUGGUCCACUACAUGAGGAUCACCCAUGUAAGGACCGGGUACGGCGCGG [theeternabot_exclusion_MS2_Trp_B_29] | 0.012 | 0.0166 | 0.04 | 0.0125 | 0.0694 |
| CUCAUCCACGCGGCCGCCACUACUUGUAGGUGUGGGUGUGUUGUGUUACAUGAGGAUCACCCAUGUAGGACCGGGCGUGGAUGAG [Whale] | 0.0539 | 0.0856 | 0.213 | 0.0627 | 0.0838 |

| Sequence | apparent KD of MS2 coat protein (input ligand: arginine 13.2 mM) [µM] | apparent KD of MS2 coat protein [1] [µM] | apparent KD of MS2 coat protein [2] [µM] | apparent KD of MS2 coat protein (input ligand: none) [µM] | apparent KD of MS2 coat protein [3] [µM] |
| --- | --- | --- | --- | --- | --- |
| CUCCCUUCGGCGGCCGCCACUAACAGUUUAAUGGACUUUCGGGUCCACAUGAGGAUCACCCAUGUUAGGACCGGGCCCUUGCUCU [theeternabot_exclusion_MS2_Trp_B_39] | 0.0088 | 0.0175 | 0.0109 | 0.0092 | 0.0106 |
| CUCUCAUGAACAUGAGGAUCACCCAUGUAACGAGGACCGGUACGGCCGCCACUCGGUCGUGGAAACUAAUCGAGUGAGGUGGGAG [Tryp A Ex t5c] | 0.0268 | 0.0857 | 0.254 | 0.0444 | 0.0754 |
| CUCUGAGUGAGGAAUCACUCAGAGGCGGAUACCAGCGAGGUCCAUCGCCCUUGGCAGCCGAACAUGAGGAUCACCCAUGUCGGUA [#1 Same State - Theophylline A Attempt #23 (HarryS)] | 0.00944 | 0.0121 | 0.0093 | 0.00945 | 0.0135 |
| CUGUACAUCUCGGCCGCCACUGACAUGAGGAUCACCCAUGUAGUACCUGAGAUAGACAUAUCUUACAGGACCGGGAGGUGUGCAG [SSTryp B #31] | 0.0122 | 0.0135 | 0.0106 | 0.0102 | 0.00935 |
| CUUCAGGGUGCGGCCGCCACUUAUUAGGUGCUUGCGACGCCAGCACAUGAGGAUCACCCAUGUUCAAGGACCGGGCACCACCUUU [theeternabot_sameState_MS2_Trp_B_21] | 0.00814 | 0.02 | – | – | 0.0151 |
| GAACAUGAGGAUCACCCAUGUAAAACAGAUACCAGUGAUAUAAUACACCCUUGGCAGCUGUAGCUGAAUAAUAAUUCCCUCAAGC [#19 SameState-TheophyllineA] | 0.017 | 0.0218 | 0.0169 | – | – |
| GAAGAGAGGAUACCGUUUGUAUACAACGAUACCAGUGGUAUGUAUCACCCUUGGCAGCGUGAGACAUGAGGAUCACCCAUGUGGC [theeternabot_exclusion_MS2_Theo_A_46] | 0.0143 | 0.0261 | 0.0184 | – | – |
| GAAGGAGAACUCAUGACUCCUUCCCUGGAAGGAGCGAGCGAAAGCUCAGGUAGGUCGCCAGAAACAUGAGGAUCACCCAUGUAAU [(A)''-(M)'-(A)'-(Arg1)-(Arg2)-(M1)-(M2)_Design4] | 0.0285 | 0.048 | 0.0401 | 0.0374 | 0.0433 |
| GACAAUAAUUCAACAAUCAAAAUAGUGGGACGAGGACCGGUACGGCCGCCACUCGCUGAAGCACAUGAGGAUCACCCAUGUCUAA [theeternabot_exclusion_MS2_Trp_A_47] | 0.0148 | 0.0198 | – | – | 0.0187 |
| GACAUGAGGAUCACCCAUGUACCGCGAGAAGGAGCGCGGAUAAACGCAGGUAGGUCGCUCGUGGGCUUACAUUCAAGUGUAAGCU [Usarat] | 0.049 | 0.143 | 0.0313 | 0.106 | 0.118 |
| GAGCUGAUGUAGAAAUUUUAUUUCUGAGAUACCAGUACAGAAAUGUACCCUUGGCAGCUCAGUUUUACAUGAGGAUCACCCAUGU [Ex Theophylline A 15] | 0.0148 | 0.0156 | 0.0131 | – | – |
| GAGCUGAUGUAGAGCCUUUAGUUCUGAGAUACCAGUACAGAAAUGUACCCUUGGCAGCUCAGCUUUACAUGAGGAUCACCCAUGU [Ex Theophylline A 17] | 0.02 | 0.0277 | 0.0235 | – | – |
| GAGGAAACUCACAUGAGGAUCACCCAUGUACGAGGACCGGUACGGCCGCCACUCGAAACCAUGGGCGGUAGUACAUGGAAACAUG [Design 2 MOD] | 0.034 | 0.0658 | – | – | 0.0755 |
| GAGGGUGAGCCUCUGGUCCGUUUGACGGAUACCAGCGAGAGGUCUCGCCCUUGGCAGCCGACGACAUGAGGAUCACCCAUGUUAA [#09 Exclusion-TheophyllineA] | 0.0173 | 0.0214 | 0.0157 | 0.0171 | 0.0192 |
| GAUAUAUAGGCGGCCGCCACUGAUUUUCAUAUAUAUAUAACAUGAGGAUCACCCAUGUAGAUAUACAGGACCGGGCCUAUAUAUU [aaaB] | 0.0155 | 0.016 | – | – | 0.016 |
| GAUCGACAAAACGUCUAGGAAAACUAGACGCGAGGACCGGUACGGCCGCCACUCGUCCUCACAUGAGGAUCACCCAUGUACGAUC [#SwitchBubble 2 #CuTurnoff] | 0.0303 | 0.0432 | – | – | 0.0463 |
| GCACCAGGUACGGAUACCAGCUAUAGGUACAUGUCAGGACAUGAGGAUCACCCAUGUGGUAGCCCUUGGCAGCUGUACCUGGUGC [EThB NP+V+V2 #2] | 0.0185 | 0.0263 | 0.0191 | – | – |
| GCAUCCUAGUCGGCCGCCACUGCAAUUGUAGUACUGCUACAUGAACAUGAGGAUCACCCAUGUAGCAGGACCGGGACUAGGAUGC [(Trp1)-(TM)''-(TM)'-(Ms2)-(Trp2)_Design10] | 0.0444 | 0.0785 | – | – | 0.0685 |
